Experimental data from patent US20110135644A1 (ESBATECH AN ALCON BIOMEDICAL RESEARCH UNIT, published 2011).

Biological target: T1, human TNF-alpha (Peprotech, London, UK) (human, UniProt P01375 77-233)
T1 construct: Commercial recombinant protein
Experiment: direct ELISA, plates coated with 0.5 µg/ml human TNF-alpha; ESBA105 standard series 50-0.5 ng/ml; used to quantify ESBA105 in serum and brain tissue
Protocol: ESBA105 concentrations were determined by triplicate measurements of each sample in a direct ELISA. 96-well plates (NUNC MaxiSorp; Omnilab, Mettmenstetten, Switzerland) were coated with 0.5 μg/ml human TNF-alpha (Peprotech, London, UK) in PBS overnight at 4° C. Between each of the following steps plates were washed three times with TBS-T (0.005% Tween20; Axon Lab, Baden-Dattwyl, Switzerland) using a micro plate washer (ASYS Atlantis, Salzburg, Austria). Unspecific binding sites were saturated by 1.5 hour incubation in PBS/1% BSA/0.2% Tween20. […] Bound ESBA105 was detected with a biotinylated affinity purified polyclonal rabbit anti-ESBA105 antibody (AK3A, ESBATech, Schlieren, Switzerland) that was diluted 1:20′000 in dilution buffer (1.5 h, room temperature). AK3A, in turn, was detected with poly-horseradish peroxidase streptavidin (Stereospecific Detection Technologies, Baesweiler, Germany) at a concentration of 0.2 ng/ml dilution buffer. […] Absorbance was measured at 450 nm in a plate reader (Sunrise; Tecan, Maennedorf, Switzerland) and ESBA105 concentrations in samples were calculated by polynomial regression from a standard curve (GraphPad Prism 4.03; GraphPad Software, Inc., San Diego, Calif.). The minimum quantifiable concentration (LOQ) of ESBA105 was 5 ng/ml in serum and 33 ng/ml in brain tissue, respectively.

T1 sequence (P01375 77-233 limits assumed): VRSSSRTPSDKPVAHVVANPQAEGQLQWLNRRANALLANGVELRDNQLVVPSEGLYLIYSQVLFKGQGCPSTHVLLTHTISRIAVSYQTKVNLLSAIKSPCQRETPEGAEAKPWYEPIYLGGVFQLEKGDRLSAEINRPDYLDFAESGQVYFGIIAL

binding result: binds
B1: ESBA105 (scFv)
scFv: MADIVMTQSPSSLSASVGDRVTLTCTASQSVSNDVVWYQQRPGKAPKLLIYSAFNRYTGVPSRFSGRGYGTDFTLTISSLQPEDVAVYYCQQDYNSPRTFGQGTKLEVKRGGGGSGGGGSGGGGSSGGGSQVQLVQSGAEVKKPGASVKVSCTASGYTFTHYGMNWVRQAPGKGLEWMGWINTYTGEPTYADKFKDRFTFSLETSASTVYMELTSLTSDDTAVYYCARERGDAMDYWGQGTLVTVSS
notes: also called ESBA105 scFv (α-TNFalpha); E105
